Residue numbers refer to the chain shown, from its start. Numbered stars: 1 amine (or outer) side, 2 acyl side, 3 side chain; on linkers, the order of the positions; unused ones are H or OH. Bridge positions count the residues as written; N and C are the ends. Square brackets hold non-standard residues; d marks the D form. Ends that are not written are not given here. * marks the point of attachment. C20 diacid = O=C(O)CCCCCCCCCCCCCCCCCCC(=O)*; γGlu = O=C(O)[C@H](CCC(=O)[*:2])N[*:1]; Hyp = O=C(O)[C@@H]1C[C@@H](O)CN1
B1: SEQ ID NO: 195 (peptide)
peptide: KCNTATCTVQRLAHQIYQTDKDKDNVAPPTNVGSNG[Hyp]-NH2
modifications: disulfide 2-7 (inferred); ends not checked
B2: SEQ ID NO: 184 (peptide)
peptide: GCRTGTCTVQRLAHQIYQFTDKFKDNVAPRSKISPQTW
B3: SEQ ID NO: 186 (peptide)
peptide: GCRTGTCTVQRLAHQIYQFTDKFKDNVAPRSKISPQY[Hyp]-NH2
modifications: disulfide 2-7 (inferred); ends not checked
B4: SEQ ID NO: 20 (peptide)
peptide: KCNTATCTVQRLAHQIYQFTDKDKDNVAPRTKVGSNG[Hyp]-NH2
modifications: disulfide 2-7 (inferred); ends not checked
B5: SEQ ID NO: 198 (peptide)
peptide: GCRIGTCTVQRLAHQIYQFTNKDKDNVAPRSKISPQT[Hyp]-NH2
modifications: disulfide 2-7 (inferred); ends not checked
B6: SEQ ID NO: 192 (peptide)
peptide: GCRMGTCTVQRLAHQIYQFTNKDKDNVAPRSKISPQT[Hyp]-NH2
modifications: disulfide 2-7 (inferred); ends not checked
B7: SEQ ID NO: 19 (peptide)
peptide: KCNTATCATQRLANFLVHSSNNFGAILPRTKVGSNGY
B8: SEQ ID NO: 207 (peptide)
peptide: B7 peptide with R29S, V32I
B9: SEQ ID NO: 204 (peptide)
peptide: GCRTGTCTVQRLAHQIYQFTDKDKDNVAPRSKVSPNG[Hyp]-NH2
modifications: disulfide 2-7 (inferred); ends not checked
B10: SEQ ID NO: 196 (peptide)
peptide: GCRTGTCTVQRLAHQIAQFTDKFKDNVAPRSKISPQT[Hyp]-NH2
modifications: disulfide 2-7 (inferred); ends not checked
B11: SEQ ID NO: 194 (peptide)
peptide: KCRMGTCTVQRLAHQIYQFTDKDKDNVAPRSKISPQT[Hyp]-NH2
modifications: disulfide 2-7 (inferred); ends not checked
B12: SEQ ID NO: 211 (peptide)
peptide: GCRTGTCTVQRLAHQIYQFTDKFKDNVAPRSKISPQF[Hyp]-NH2
modifications: disulfide 2-7 (inferred); ends not checked
B13: SEQ ID NO: 181 (peptide)
peptide: KCNTATCTVQRLAHQIYFTDKDKDNVAPPTNVGSNG[Hyp]-NH2
modifications: disulfide 2-7 (inferred); ends not checked
B14: SEQ ID NO: 202 (peptide)
peptide: GCRWGTCTVQRLAHQIYQFTDKDKDNVAPSSKISPQT[Hyp]-NH2
modifications: disulfide 2-7 (inferred); ends not checked
B15: SEQ ID NO: 201 (peptide)
peptide: GCRTGTCTVQRLAHQIYQFTDKFKDNVAPRSKISPQH[Hyp]-NH2
modifications: disulfide 2-7 (inferred); ends not checked
B16: SEQ ID NO: 205 (peptide)
peptide: KCRFGTCTVQRLAHQIYQFTDKDKDNVAPRSKISPQT[Hyp]-NH2
modifications: disulfide 2-7 (inferred); ends not checked
B17: SEQ ID NO: 200 (peptide)
peptide: {C20 diacid-γGlu}-GCRFGTCTVQRLAHFLYQFTDKDKDNVAPRTNVGPQGY-NH2
modifications: disulfide 2-7 (inferred); ends not checked
B18: SEQ ID NO: 182 (peptide)
peptide: GCRFGTCTVQRLAHQIYQFTDKDKDNVAPRSNISPQGY
B19: SEQ ID NO: 188 (peptide)
peptide: B18 peptide with F4T, S31T, Q36N
B20: SEQ ID NO: 209 (peptide)
peptide: B18 peptide with F4T, S31T, N32K, I33V
B21: SEQ ID NO: 183 (peptide)
peptide: B18 peptide with F4T, I33V
B22: SEQ ID NO: 190 (peptide)
peptide: B18 peptide with F4T, S31T, N32K, Q36N
B23: SEQ ID NO: 199 (peptide)
peptide: B18 peptide with F4T, S31T
B24: SEQ ID NO: 191 (peptide)
peptide: B18 peptide with F4T, S34G
B25: SEQ ID NO: 193 (peptide)
peptide: GCRTGTCTVQRLAHQIHQFTDKFKDNVAPRSKISPQT[Hyp]-NH2
modifications: disulfide 2-7 (inferred); ends not checked
B26: SEQ ID NO: 208 (peptide)
peptide: {C20 diacid-γGlu}-GCRFGTCTVQRLAHFLYQFTDKDKDNVAPRTNVGSNTY-NH2
modifications: disulfide 2-7 (inferred); ends not checked
B27: SEQ ID NO: 187 (peptide)
peptide: GCRTGTCTVQRLAHQIYQFTDKDKDNVAPRSKVGPQG[Hyp]-NH2
modifications: disulfide 2-7 (inferred); ends not checked
B28: SEQ ID NO: 21 (peptide)
peptide: {C20 diacid-γGlu}-KCNTATCTVQRLANQIYQFTDKDKDNVAPPTNVGSNG[Hyp]-NH2
modifications: disulfide 2-7 (inferred); ends not checked
B29: SEQ ID NO: 210 (peptide)
peptide: KCNTATCTVQRLAHQAYQFTDKDKDNVAPPTNVGSNG[Hyp]-NH2
modifications: disulfide 2-7 (inferred); ends not checked
B30: SEQ ID NO: 185 (peptide)
peptide: GCRTGTCTVQRLAHQIYQFTDKFKDNVAPRSKISPQW[Hyp]-NH2
modifications: disulfide 2-7 (inferred); ends not checked
B31: SEQ ID NO: 212 (peptide)
peptide: GCRFGTCTVQRLAHQIYQFTDKFKDNVAPRSKISPQT[Hyp]-NH2
modifications: disulfide 2-7 (inferred); ends not checked
B32: SEQ ID NO: 206 (peptide)
peptide: GCRTGTCTVQRLAHQIYQFTDKFKDNVAPRSKISPQK[Hyp]-NH2
modifications: disulfide 2-7 (inferred); ends not checked
B33: SEQ ID NO: 197 (peptide)
peptide: GCRTGTCTVQRLAHQIYQFTDKDKDNVAPRTKISPNG[Hyp]-NH2
modifications: disulfide 2-7 (inferred); ends not checked
B34: SEQ ID NO: 203 (peptide)
peptide: GCRTGTCTVQRLAHQIYQFTDKFKDNVAPRSKISPQP[Hyp]
modifications: ends and bridges not checked
B35: SEQ ID NO: 189 (peptide)
peptide: GCRTGTCTVQRLAHQIYQFTDKDKDNVAPRTKISPQG[Hyp]-NH2
modifications: disulfide 2-7 (inferred); ends not checked

Assays:
hAM1R = hAM1R (human, UniProt Q16602); assay: cell-based or functional assay
hAMY3R = biological target: T1, hAMY3R (human, UniProt P30988); assay: cell-based or functional assay
T1 sequence 1: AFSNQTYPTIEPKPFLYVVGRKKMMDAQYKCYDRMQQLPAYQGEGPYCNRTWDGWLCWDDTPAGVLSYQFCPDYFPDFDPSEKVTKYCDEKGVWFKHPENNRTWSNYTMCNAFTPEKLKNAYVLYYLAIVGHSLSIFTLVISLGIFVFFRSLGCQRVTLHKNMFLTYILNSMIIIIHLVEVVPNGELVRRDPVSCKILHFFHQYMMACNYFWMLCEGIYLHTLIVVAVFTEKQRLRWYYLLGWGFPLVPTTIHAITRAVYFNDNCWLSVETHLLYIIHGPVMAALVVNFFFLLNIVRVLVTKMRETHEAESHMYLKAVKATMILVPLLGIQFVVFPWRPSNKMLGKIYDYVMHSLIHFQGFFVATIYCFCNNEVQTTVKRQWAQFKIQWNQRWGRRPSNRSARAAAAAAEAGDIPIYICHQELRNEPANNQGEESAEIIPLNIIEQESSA
T1 sequence 2: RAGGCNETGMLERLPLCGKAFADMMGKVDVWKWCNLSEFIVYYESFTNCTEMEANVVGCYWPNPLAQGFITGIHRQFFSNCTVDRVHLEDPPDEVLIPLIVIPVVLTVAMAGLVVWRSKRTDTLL

| Binder | hAM1R EC50 (cAMP) (hAM1R) | hAMY3R EC50 (cAMP) (hAMY3R) |
| --- | --- | --- |
| B1 | > 5000 nM | 0.112 nM |
| B2 | 4500 nM | 0.09 nM |
| B3 | > 5000 nM | 0.091 nM |
| B4 | > 5000 nM | 0.008 nM |
| B5 | 3960 nM | 0.122 nM |
| B6 | > 5000 nM | 0.098 nM |
| B7 | > 5000 nM | 0.008 nM |
| B8 | > 5000 nM | 0.131 nM |
| B9 | 2980 nM | 0.129 nM |
| B10 | > 5000 nM | 0.114 nM |
| B11 | 3530 nM | 0.112 nM |
| B12 | 2760 nM | 0.151 nM |
| B13 | > 5000 nM | 0.082 nM |
| B14 | > 5000 nM | 0.126 nM |
| B15 | 4880 nM | 0.126 nM |
| B16 | 3230 nM | 0.13 nM |
| B17 | 38.2 nM | 0.126 nM |
| B18 | 100 nM | 0.085 nM |

| Binder | hAM1R EC50 (cAMP) (hAM1R) | hAMY3R EC50 (cAMP) (hAMY3R) |
| --- | --- | --- |
| B19 | 47.6 nM | 0.094 nM |
| B20 | 1020 nM | 0.136 nM |
| B21 | 2980 nM | 0.088 nM |
| B22 | 2980 nM | 0.097 nM |
| B23 | 2980 nM | 0.124 nM |
| B24 | 2980 nM | 0.098 nM |
| B25 | > 5000 nM | 0.099 nM |
| B26 | 242 nM | 0.133 nM |
| B27 | 2980 nM | 0.093 nM |
| B28 | > 5000 nM | 0.008 nM |
| B29 | > 5000 nM | 0.137 nM |
| B30 | > 5000 nM | 0.09 nM |
| B31 | > 5000 nM | 0.153 nM |
| B32 | > 5000 nM | 0.13 nM |
| B33 | 2980 nM | 0.12 nM |
| B34 | > 5000 nM | 0.127 nM |
| B35 | 2980 nM | 0.096 nM |

Reference: patent US12139520B2 (priority 2020, dated 2024)
